Here are results for one substance from paper PMC9640981, “Plant vernalization proteins contain unusual PHD superdomains without histone H3 binding activity” (The Journal of Biological Chemistry, 2022).

For this assay, the target named is Arabidopsis thaliana (At) OBE1_(193-372), PHD superdomain of OBERON 1 (A. thaliana) (UniProt Q9S736). Briefly: ITC; 25 °C, iTC 200; 25 mM Tris pH 8, 150 mM NaCl, 1 mM DTT; 19 injections of 2 μl of 0.25 to 1 mM peptide into 50 μM protein. On the technique in general: In ITC the heat of successive injections is recorded.

What is called Kd is a measure of binding affinity in units of concentration. The low end stands for tighter binding, the high end for weaker binding. Consider “H3K4me2 (1–15) histone H3 tail peptide (from UniProt P68431 2-16)”, for which the Kd was found to be 1900 nM.
